# Experiment: soluble on expression in E. coli; label from the status in PepcDB or PDB records
row,Sequence,soluble on expression in E. coli
1,MGSSHHHHHHGKTIFVIVPTNEEQVAFLEALAKQDELNFDWQNPPTEPGQPVVILIPSDMVEWFLEMLKAKGIPFTVYVEEGGSENLYFQGGGGGGYCAPTGRGADPKFYTPDAARKRDEQDKSYPVPKKLLKVRFLSDVGNTMPIAFVPLQREVEVLVGEPALAFYSAYNRSNRTLLGVSSYTIAPPEVTNYLNKIQCFCFEEQRFKPHELVEMPVFFYIDRDFLNDSMVNWLDEVIVNYTFFNLEKTKDYIFRPNAR,not soluble
2,MAHHHHHHMGKAAKGRTAMPGKLDTTEADKRTPKSIIIYRGEVGIHVRSLMHEWRNVFLPWSSKKLHGKNKSLKDFLAVAATFSASHLQLFTAPSQGTSLRIMRFFNGPTLSFRVLSFTLHKEIVAKQRRPVAVDRAAWEVAPIVVLNNFTHPDLAHRAEVPLLTATFKALFPSLNVQTIQSSEIQRICLFHYDHVEHVVEVRHYYINARTVGVTKTVKKLLENRRPTKLGTLESIDEVLDREDAWSDTDGEGEEVPLVQPFRQHREQCRVKLQEIGPRMTLQLSKVENGFAGGEVIYHRTEKKTLREVQVNASKVRARKTEKAKRRALQDENVQRKRQKREDKLERKHQRREAAAEAQQANPFEVAHGDGDGDGYAAGDEE,soluble
3,MSLNLNVLEIKSFVPAQDFTTSKQFYLSLGFELITEFGDVAYLRLGQCAFLLQNTHQRPHQGNTMMHLLVEDAQSWFDHVKTLQLEERFESKVTDLITQPWGMLEFCLVDPSDVLWRIGQRIGEGHHHHTTDPNSSSVDKLAAALEHHHHHH,soluble
4,MKKKLLAGAITLLSVATLAACSKGSEGADLISMKGDVITEHQFYEQVKSNPSAQQVLLNMTIQKVFEKQYGSELDDKEVDDTIAEEKKQYGENYQRVLSQAGMTLETRKAQIRTSKLVELAVKKVAEAELTDEAYKKAFDEYTPDVTAQIIRLNNEDKAKEVLEKAKAEGADFAQLAKDNSTDEKTKENGGEITFDSASTEVPEQVKKAAFALDVDGVSDVITATGTQAYSSQYYIVKLTKKTEKSSNIDDYKEKLKTVILTQKQNDSTFVQSIIGKELQAANIKVKDQAFQNIFTQYIGGGDSSSSSSTSNE,soluble
5,MGSDKIHHHHHHMRVEEAKYLAKKIMMAGEIPLLVGHFGVGKTDIARDIARETERKLIILVLSQMEPGDLIGLPARTEEKTVFLKPDWWPESGDTILFLDEINRAHRSVRNAIMQLLVDRRIHNHILPEGTWIMAAMNPPEEEYDQADLITDPAFISRFFILEVNPDVSEWLEWAEKNNVSKEVRDFIRDYPEFLFSERSLSLRTSLKPSPRSWYKLSNVLKTLTDDEKEKYGYVIAAGIVGPEAAKAFYDSFFQRVKIPSVESVLFDGKIENLEDIHAANTLVLRIVDFLSKVDVRTLERHLDDVSKNLVRLSEIMPKESFYGVLRFLVDEAQKEGEKSWIFDKILEKMLEREDMRKMVNEL,not soluble
6,GPGSMRPNVMLTIPKNTLQVFDMGLDFRSYLSRVDVNGLPVLGNVVSYEASKLTEVFTPTVGLLVTILHMLAHCTSSCSAVAWLKAYDAIQKMYIENSEEENTEAVRYAVEARAAIKDYLTGDAVPGTNLLCEKLLTLLDQQSGIHGSQAPSQRKVPREPKGAFCNLHLSDQKCYQDFACNQLHLQEVKTVRHRKIFYMRLIEVLKAEKRSRQQIRHRIKDSVFFARYGNKVTVQCQGKWIPFFKTVYTDGRLEQALRTQHFACGDSACADENCLGIHPQDRRVTTSSKLMDLNNPDVVLQQIEEEAERHLSMEGAFNDHEAEHISAAASSSSMPSPTSEMWRNTVREYVRQTGIPQVEADESLLRTLQDANVLATPTASTESLTPLLDELDMRTFSSSSPVREHPNAEIG,not soluble
7,MKEIWYVRHGETEWNAQRRFQGHLDIPLSPVGIGQAFRLAERLSRSRISFDRLYASDLRRARQTAEPLAQVLGLPIATTPLLREIHVGELAGLTRAEAEARFPSFLAEAAEDPWNARRPGGESMADLARRLQAFLEEVPPGRHLVVTHGGVIRAALKLALDLAGDTWRRFHIQNTSITRILYPENAVLTVADAAHLEVWADWLSDEDLKG,soluble
8,MGHHHHHHSHMTKIIPVASGKGGVGKTSFVANVGYKLSSLGKTVILVDLDLGGSNLHTCLGVKNKGVGIGSFINKKSKSFSDLVCKTSYDKLYLIPGDALYTGTANLPFSIKKKIIESIQKDLIADFIFLDLGSGTSYNTIDFYLASYSGVIVTIPETPSILNAYSFLKNALYRLLYLGFP,not soluble
9,MGDVIKVLDAQVRESLSGLPELHINFRARIILNPEDPRVDSIPPLEEVRIATYTRKKIGDIEPGDRFIEIRGTIAKVYRVLTYDACPECKKKVDYDPGTGVWICPEHGEVEPIKMTILDFGLDDGTGYIRVTLFGDDAEELLGVSSEEIAEKIKELENSGLTTKEAARKLAEEEFYKIIGKEIVVRGNVIEDRFLGLILRASSWEEVDYRKEIENIKEELEKLGVMLEHHHHHH,soluble
10,MDTSKIVGEKIKALREDKSISIEELAQRSGLAIEQIERIENNIDIPSLAPLIKIARVLGVRLGTFLDDQDEIGPVVCRKKEAKDAISFSNNAIHSRKHMEYHSLSKSKADRHMEPFIIDVMPTEDSDFVLSSHEGEEFIMVMEGVMEISYGKNTYLLEEGDSIYYDSIVPHHVHAYEGQAAKILAVVYTPI,not soluble
11,MNMTKNAFQFGIEPVRITDTDNIQVNEGLPTNADPQVYALQLAKTVKAMLNGVLKDAQDNIPFPVEVLPTRNSLPTPIIAHTLADRSVLVPVRGGKRPEVVTAPSGTEITVEPIEQAILVSHQTKLWDQKSTTGFTQGTLQQDALNICDNVIRTINSKMVDVLESSKLLKTVELPALTGSLTAKADAIMDALYENTESSFGSEVSDYGIIAHESHLKALSRLAAKQGFGGEDAIVDMLGTDVAYYNGEDRGVFMMAKRFTALSFGCFRHDGESITVVLSRDGDSQSHDLEILGKVFVVAEAATTIKMGTGSATAVLPVVKRLSFTKEAN,not soluble
12,MLAVGIVGLPNVGKSTLFNALTRANALAANYPFATIDKNVGVVPLEDERLYALQRTFAKGERVPPVVPTHVEFVDIAGLVKGAHKGEGLGNQFLAHIREVAAIAHVLRCFPDPDVVHVMGRVDPLEDAEVVETELLLADLATLERRLERLRKEARADRERLPLLEAAEGLYVHLQEGKPARTFPPSEAVARFLKETPLLTAKPVIYVANVAEEDLPDGRGNPQVEAVRRKALEEGAEVVVVSARLEAELAELSGEEARELLAAYGLQESGLQRLARAGYRALDLLTFFTAGEKEVRAWTVRRGTKAPRAAGEIHSDMERGFIRAEVIPWDKLVEAGGWARAKERGWVRLEGKDYEVQDGDVIYVLFNA,soluble
13,MAHHHHHHMTPAGAGEIFLRHNPYRSEVISWYRKFLKASFSVPWETDEDALYVLEEARRLFRKNARINDIETIERKLREAEMRYEIGVHYRIPYPRAFHKTQGSLQESGVAYAADLDSMYDHPVSPRIGWIMEGSVNGGTMGGSEHLTQYLEDGPGVENDNLSEGR,not soluble
14,MRLDKYLSKSLHISRKEAKELIREGRVKVSGKVVKQAEYRVKEGEEVEVEGKSVKPKKNVYLMLYKPKGYLSTTEEDKKYPSFLELIREHFPSRKLFSAGRLDVDAEGLLLITDDGELAHRLTHPKWKVEKEYIVRLDRDIGDEELKKLYEVKLEEKPVQLVKAEKLSGDTVKAILTEGRHHVVKRLFKAVGHNVVYLKRTRVGNLRLDENMEPGEWRELTEEEVKELKRLVKYNPQN,soluble
15,MSLEMEHINENTIRVLIGNEDLADRGITFLDLLGNHKDVENFFYSILEEVDVEDEFQGSEAVTFQVLPKNDGLELFISKNVAMDDLSSLEGLSEVNADVSELIRKQIEADKAAADELDEMEATDETNRNVIFELDNFEAMIQLSKEVFMQSVLTNLYTYNDRYYLQVLFLTDELEKTNVDNEIAQILEFAHKTTVTQDTLVEYGTCIMERSALELTRYYFNDEGHHHHHH,soluble
16,MLGIYVLSVDRQSPFAQALKVGDTVTEVNGHHFNSMTGYQRYIQRQKVGQRATITYQRNGKTHHVTAKLMRLPTKKAGIGITLEHHHHHH,not soluble
17,GSHSMRYFYTAVSRPGRGEPHFIAVGYVDDTQFVRFDSDAASPRGEPRAPWVEQEGPEYWDRETQKYKRQAQTDRVSLRNLRGYYNQSEAGSHIIQRMYGCDVGPDGRLLRGYDQYAYDGKDYIALNEDLRSWTAADTAAQITQRKWEAAREAEQLRAYLEGLCVEWLRRYLKNGKETLQRAEHPKTHVTHHPVSDHEATLRCWALGFYPAEITLTWQWDGEDQTQDTELVETRPAGDGTFQKWAAVVVPSGEEQRYTCHVQHEGLPEPLTLRWEPSS,soluble
18,MGSDKIHHHHHHMIEYRIEEAVAKYREFYEFKPVRESAGIEDVKSAIEHTNLKPFATPDDIKKLCLEARENRFHGVCVNPCYVKLAREELEGTDVKVVTVVGFPLGANETRTKAHEAIFAVESGADEIDMVINVGMLKAKEWEYVYEDIRSVVESVKGKVVKVIIETCYLDTEEKIAACVISKLAGAHFVKTSTGFGTGGATAEDVHLMKWIVGDEMGVKASGGIRTFEDAVKMIMYGADRIGTSSGVKIVQGGEERYGG,soluble
19,TLTSTLASMMDALETALQPLKKYGFPVESVVLAFSLTLRLLPLMLNTVNEVLDARKARGVAFSLTALGTPVMIRSINRARSIADALMARGAGD,not soluble
20,MGSDKIHHHHHHMADFNQYTRWEHQMHGVKLPRWDDLPKFDLYMDQVTALINDVLGPLGIDTVTPAMINNYVKHNVIMAPVKKKYQTMQLTDILMISLLKPMFQTDTVRSGIDQITAGDYPKQAYDNFIGQLEDRLHHLGEDQVQPAAQNLNEKLMQVAVDTVVSRLQSEKLLRLIKRPLRKIEKK,not soluble
21,MSLSLSLEVLERLVAFETVSDRPNLDMIAYVEDFLRTRGFRVHRIADPEEAKAGLFAEIGPSVDGGLLLSAHSDVVPVEGQSWCVPPFKLTRQGDKLYGRGTTDMKGFLAEMLALADVVHRRDLHAPLKLLISYDEEIGCVGISRMKDRLRPLLGRPELAIVGEPTEMQVAISHKGKRSYRADFRGEAGHSALAPRFVNALHLAVDFVTKLRQMQDEFRQDGNFNGDYDVPYTTLHVGQLHGGEALNLVPDKATLLFEFRHLAEDDPEVIEARIQQAADAVKGNYADVAHISLDALAGYPGLSVAVSEPLVSRVRSWCDGNISHVAFGTEAGVLSELGIQTVVCGPGSMAEQGHKPDEFISEHQLAACSNMLRKGAEEMLYCAEGHHHHHH,soluble
22,MVRTAPDPAMVQRSHQKPSLVMTTHSMLIPMVDTLLELPARTLTDGTSTPKHQQLREILEELCRTQLKPGDMLPGERALEEQYGVSRITVRRAIGDLVATGQLRRSRGKGTFVAQAPMITRLQLASFSDEMAARKIEASSKILASSWSSPSAVVHEFFGTEQGTPHTHLVRVRLGGGKPFCINDAWYNSAIAPDLLENDVYKSVYSILEQNYGASITGAEQITTAVAATPETARILGVDVGEPLLKVERHAHAGENPIEWCSSLYRTDRFALRTFITK,not soluble
23,MNKQEVILKVQECAAWWILERQSKLTKLMSETMSINPFMTPFIFDYHSLNDFDELVEAIIAKHLMTGHDTGFGKLIDEKILPRVFGAYKLDKSYRAANEPFIHPCFDEIDHVIQRDDGRIELLSLKAGKWTIQLTMAVQLNKAFHEIINNYPGVADNIVVGVFYGNSHGLTDKYRILRGINTGANHNVIDIRDKVHVYAGKEFWSWLNNGEAETQHWVLEGIERAVKEADIKEKNKDLIEKFKEHVAKKYNEQVLNADGTAQWHKLLEMINE,soluble
